Reference: patent publication US9618524B2, “Method, composition, isolation and identification of a plaque particle and related biomarker” (Plaxgen Inc., priority 2012, dated 2017)

B1: Ig gamma-3 chain C region (protein)
chain: ASTKGPSVFPLAPCSRSTSGGTAALGCLVKDYFPEPVTVSWNSGALTSGVHTFPAVLQSSGLYSLSSVVTVPSSSLGTQTYTCNVNHKPSNTKVDKRVELKTPLGDTTHTCPRCPEPKSCDTPPPCPRCPEPKSCDTPPPCPRCPEPKSCDTPPPCPRCPAPELLGGPSVFLFPPKPKDTLMISRTPEVTCVVVDVSHEDPEVQFKWYVDGVEVHNAKTKPREEQYNSTFRVVSVLTVLHQDWLNGKEYKCKVSNKALPAPIEKTISKTKGQPREPQVYTLPPSREEMTKNQVSLTCLVKGFYPSDIAVEWESSGQPENNYNTTPPMLDSDGSFFLYSKLTVDKSRWQQGNIFSCSVMHEALHNRFTQKSLSLSPGK
B2: Lactotransferrin (protein)
chain: GRRRSVQWCAVSQPEATKCFQWQRNMRKVRGPPVSCIKRDSPIQCIQAIAENRADAVTLDGGFIYEAGLAPYKLRPVAAEVYGTERQPRTHYYAVAVVKKGGSFQLNELQGLKSCHTGLRRTAGWNVPIGTLRPFLNWTGPPEPIEAAVARFFSASCVPGADKGQFPNLCRLCAGTGENKCAFSSQEPYFSYSGAFKCLRDGAGDVAFIRESTVFEDLSDEAERDEYELLCPDNTRKPVDKFKDCHLARVPSHAVVARSVNGKEDAIWNLLRQAQEKFGKDKSPKFQLFGSPSGQKDLLFKDSAIGFSRVPPRIDSGLYLGSGYFTAIQNLRKSEEEVAARRARVVWCAVGEQELRKCNQWSGLSEGSVTCSSASTTEDCIALVLKGEADAMSLDGGYVYTAGKCGLVPVLAENYKSQQSSDPDPNCVDRPVEGYLAVAVVRRSDTSLTWNSVKGKKSCHTAVDRTAGWNIPMGLLFNQTGSCKFDEYFSQSCAPGSDPRSNLCALCIGDEQGENKCVPNSNERYYGYTGAFRCLAENAGDVAFVKDVTVLQNTDGNNNEAWAKDLKLADFALLCLDGKRKPVTEARSCHLAMAPNHAVVSRMDKVERLKQVLLHQQAKFGRNGSDCPDKFCLFQSETKNLLFNDNTECLARLHGKTTYEKYLGPQYVAGITNLKKCSTSPLLEACEFLRK

Key:
Test in all cases: Mass spectroscopy proteomics, semi-quantitative binding affinity of serum proteins (plaqueproteome, Table 2)
Details in all cases: higher number = stronger affinity
[1] = biological target: T1, alpha-synuclein plaque particles (Homo sapiens, UniProt P37840)
T1 construct: 140 amino acids polypeptide
In short: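 AD-subject plasma or serum (800 μL of 50%) mixed with 30 μg preformed alpha-synuclein aggregates for 1 h at 37 °C; Thioflavin S-positive particles isolated by flow sorting. After reduction, acrylamide alkylation and overnight tryptic digestion, serum proteins identified by MS/MS with Sequest and Scaffold.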

[2] = biological target: T2, Abeta-42 plaque particles (Homo sapiens, UniProt P05067)
T2 construct: Abeta 1-42
In short: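 AD patient serum or plasma (50% in PBS) was incubated with Abeta-42 aggregates (30 μg) for 1 h at 37 °C, then stained with Thioflavin S for 30 min. Labeled particles were FACS-sorted, trypsin/Lys-C digested overnight and analyzed by MS/MS. Sequest searched human UniProt; Scaffold/Protein Prophet validated the identifications.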

Tau plaque particles = test system: Tau plaque particles; parameters: species or system human
In short: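 Serum or plasma proteins captured on Thioflavin S-labelled Tau plaque particles (Tau-74, Tau-275 oligomers preformed in PBS at 37° C for 2 h; 1 h co-incubation at 37° C) were isolated by FACS sorting, then tryptically digested and identified by MS/MS (Sequest, human UniProt, strict trypsin).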

[3] = test system: Low density cholesterol (Chl small) plaque particles; parameters: species or system human
In short: (§1)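 Read-out is MS/MS protein identification (Sequest, strict trypsin, 20 ppm parent tolerance; Scaffold probabilities) of serum proteins bound to flow-sorted cholesterol plaque particles. These particles formed when 50% atherosclerotic serum was incubated with 30 μg cholesterol aggregates for 1 hr at 37° C.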

[4] = test system: High Density cholesterol (Chl Large) plaque particles; parameters: species or system human
In short: as §1

Row | Molecule | Semi-quantitative analysis of proteins binding to different plaque particles: Synuclein [1] | Semi-quantitative analysis of proteins binding to different plaque particles: Abeta-42 [2] | Semi-quantitative analysis of proteins binding to different plaque particles: Tau (Tau plaque particles) | Semi-quantitative analysis of proteins binding to different plaque particles: Chl small [3] | Semi-quantitative analysis of proteins binding to different plaque particles: Chl Large [4]
1 | B1 | 14 | 11 | 13 | 11 | 15
2 | B2 | 0 | 5 | 0 | 0 | 0
